Each binder was assayed against Nb55 (Lama glama (llama immune VHH library), UniProt PDB:9GXH_1) (assay: ITC).

Binding result, no binding:
GACCCCGCCCCCGGCCCGCCCCCG (structured_DNA) [VEGF]
GAAAAACCCCCTTTTTC (structured_DNA) [B-DNA hairpin]
GGGCGCGGGAGGAATTGGGCGGG (structured_DNA) [Bcl2]
TGAGGGTGGGTAGGGTGGGTAA (structured_DNA) [c-Myc]
GGTGGGTGTGGTTGG (structured_DNA) [TBA T4G]
